Data published in publication PMC11373591.

Legend:
[1] = target: HLA.A2-H12 / beta-2-microglobulin refolded with the 9V NY-ESO-1 peptide (A2/9V)
[2] = target: HLA.A2-H12 / beta-2-microglobulin refolded with the 9V NY-ESO-1 peptide (A2/9V); remark: listed apart in the source
[3] = target: CD8 binding–deficient HLA.A2 (DT227/228KA) refolded with the 9V NY-ESO-1 peptide (A2^ΔCD8/9V)

Substance | specific lysis of HLA.A2-expressing K562 cells pulsed with 0.1 nM 9V peptide after 6, 8 and 24 hours of coculture at 1:1 (luciferase); 1G4 by CRISPR-Cas9 [1] | EC50: antigen density on the SLB at half-maximum T cell activation (Fura-2 calcium response); receptor by CRISPR-Cas9 knock-in (antigen molecules per μm^2) [2] | EC50: antigen density on the SLB at half-maximum T cell activation (Fura-2 calcium response); receptor by CRISPR-Cas9 knock-in (antigen molecules per μm^2) [3]
1G4 TCR | 65 % killing | 0.00703 | 0.0181
c58c61 1G4hi TCR |  | 0.04 | 0.0736
